Target: GST-LEDGF PWWP (UniProt O75475 1-100)
Test: EMSA

Sequence of GST-LEDGF PWWP (O75475 1-100): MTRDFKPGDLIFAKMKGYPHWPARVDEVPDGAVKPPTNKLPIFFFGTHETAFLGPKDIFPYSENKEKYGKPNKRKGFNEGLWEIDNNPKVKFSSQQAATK

Binder	Kd
SMYD1 DNA 40 bp (dsDNA) DNA 1: CAGGCTGGTCTTGAACTCCTGACCTCAGATGATCCATGTG DNA 2: CACATGGATCATCTGAGGTCAGGAGTTCAAGACCAGCCTG	~1500 nM
non-specific DNA 40 bp (dsDNA) DNA 1: CTGCAGAAGCTTGGTGCCGGGGCCGCTCAATTGGTCGTAG DNA 2: CTACGACCAATTGAGCGGCCCCGGCACCAAGCTTCTGCAG	~1500 nM
